In the assay the target is T1, interleukin-33 (IL-33) (human, UniProt O95760 95-270, limits assumed).
T1 construct: This is endogenous circulating IL-33 in treated patients, not a recombinant construct; also called total IL-33
T1 sequence (looked up): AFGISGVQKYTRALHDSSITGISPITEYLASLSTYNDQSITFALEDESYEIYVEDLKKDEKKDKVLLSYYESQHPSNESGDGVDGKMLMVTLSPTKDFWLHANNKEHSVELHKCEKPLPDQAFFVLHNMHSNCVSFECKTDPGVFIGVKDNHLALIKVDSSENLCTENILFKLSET
Put plainly: Target mediated drug disposition (TMDD) model of total IL-33 vs. time in serum, driven by PopPK-predicted PK, all studies; an in vivo model estimate, not a direct binding assay; in vivo TMDD model estimate from clinical total IL-33 data, not a direct binding assay. The method, then:
Total TL-33 vs. time was modelled using a target mediated drug disposition (TMDD) approach. All studies were included in the analysis. PopPK predicted PK for each individual was used to drive the total IL-33 dynamics. […] (This was based on the baseline IL-33 assumption of ½ lower limit of quantification (LLOQ).) Based on the computed threshold, 300 mg Q2W, 300 mg Q4W, and 300 mg Q8W may be able to meet the threshold target for achieving 90% target engagement.

Data on one molecule can be found in US20210230265A1 (Sanofi, published 2021).

B1: SAR440340 (antibody, human IgG4 S228P, kappa, V domains shown)
VH: VQLVESGGNLEQPGGSLRLSCTASGFTFSRSAMNWVRRAPGKGLEWVSGISGSGGRTYYADSVKGRFTISRDNSKNTLYLQMNSLSAEDTAAYYCAKDSYTTSWYGGMDVWGHGTTVTVSS
VL: IQMTQSPSSVSASVGDRVTITCRASQGIFSWLAWYQQKPGKAPKLLIYAASSLQSGVPSRFSGSGSGTDFTLTISSLQPEDFAIYYCQQANSVPITFGQGTRLEIKR
notes: Human anti-IL-33 antibody; also called REGN3500; itepekimab
For the molecule B1, the Kd (in general, the free concentration of one partner at which half of the binding sites on the other are occupied at equilibrium, for simple one-to-one binding) is 7.01 nM.
